± gives the standard deviation of the averaged measurements.
Key:
MCF7 = test: percentage of EdU-negative (G0-arrested) nuclei per well, 72 h; higher = more G0 arrest; details: reference: sequence is the full UniProt precursor, the tested protein was the secreted form or ectodomain
hTERT-HMEC = test: as above; details: reference: sequence is the full UniProt precursor, the tested protein was the secreted form or ectodomain
[1] = protein concentration 0.0082175 µM
[2] = protein concentration 0.01138 µM
[3] = protein concentration 0.082175 µM
[4] = protein concentration 0.1138 µM
[5] = protein concentration 0.03125 µM
[6] = protein concentration 0.3125 µM
[7] = protein concentration 0.0284075 µM
[8] = protein concentration 0.284075 µM
[9] = protein concentration 0.0225 µM
[10] = protein concentration 0.00685714 µM
[11] = protein concentration 0.0685714 µM
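Note: secreted proteins added to cultured cells, EdU pulse at the end, nuclei found by Hoechst imaging, EdU status from nuclear versus surrounding ring intensity ratio, PBS as neutral control.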

Sequence: MRVLGGRCGALLACLLLVLPVSEANFLSKQQASQVLVRKRRANSLLEETKQGNLERECIEELCNKEEAREVFENDPETDYFYPKYLVCLRSFQTGLFTAARQSTNAYPDLRSCVNAIPDQCSPLPCNEDGYMSCKDGKASFTCTCKPGWQGEKCEFDINECKDPSNINGGCSQICDNTPGSYHCSCKNGFVMLSNKKDCKDVDECSLKPSICGTAVCKNIPGDFECECPEGYRYNLKSKSCEDIDECSENMCAQLCVNYPGGYTCYCDGKKGFKLAQDQKSCEVVSVCLPLNLDTKYELLYLAEQFAGVVLYLKFRLPEISRFSAEFDFRTYDSEGVILYAESIDHSAWLLIALRGGKIEVQLKNEHTSKITTGGDVINNGLWNMVSVEELEHSISIKIAKEAVMDINKPGPLFKPENGLLETKVYFAGFPRKVESELIKPINPRLDGCIRSWNLMKQGASGIKEIIQEKQNKHCLVTVEKGSYYPGSGIAQFHIDYNNVSSAEGWHVNVTLNIRPSTGTGVMLALVSGNNTVPFAVSLVDSTSEKSQDILLSVENTVIYRIQALSLCSDQQSHLEFRVNRNNLELSTPLKIETISHEDLQRQLAVLDKAMKAKVATYLGGLPDVPFSATPVNAFYNGCMEVNINGVQLDLDEAISKHNDIRAHSCPSVWKKTKNS
- percentage of EdU-negative (MCF7; [1]): 25.6 ± 0.65%
- percentage of EdU-negative (MCF7; [2]): 28.4 ± 1.6%
- percentage of EdU-negative (MCF7; [3]): 27.3 ± 4.3%
- percentage of EdU-negative (MCF7; [4]): 28.2 ± 3.1%
- percentage of EdU-negative (hTERT-HMEC; [1]): 4.46 ± 0.51%
- percentage of EdU-negative (hTERT-HMEC; [2]): 4.81 ± 0.94%
- percentage of EdU-negative (hTERT-HMEC; [3]): 7.16 ± 1.3%
- percentage of EdU-negative (hTERT-HMEC; [4]): 5.79 ± 0.86%

Sequence: MRVLLAALGLLFLGALRAFPQDRPFEDTCHGNPSHYYDKAVRRCCYRCPMGLFPTQQCPQRPTDCRKQCEPDYYLDEADRCTACVTCSRDDLVEKTPCAWNSSRVCECRPGMFCSTSAVNSCARCFFHSVCPAGMIVKFPGTAQKNTVCEPASPGVSPACASPENCKEPSSGTIPQAKPTPVSPATSSASTMPVRGGTRLAQEAASKLTRAPDSPSSVGRPSSDPGLSPTQPCPEGSGDCRKQCEPDYYLDEAGRCTACVSCSRDDLVEKTPCAWNSSRTCECRPGMICATSATNSCARCVPYPICAAETVTKPQDMAEKDTTFEAPPLGTQPDCNPTPENGEAPASTSPTQSLLVDSQASKTLPIPTSAPVALSSTGKPVLDAGPVLFWVILVLVVVVGSSAFLLCHRRACRKRIRQKLHLCYPVQTSQPKLELVDSRPRRSSTQLRSGASVTEPVAEERGLMSQPLMETCHSVGAAYLESLPLQDASPAGGPSSPRDLPEPRVSTEHTNNKIEKIYIMKADTVIVGTVKAELPEGRGLAGPAEPELEEELEADHTPHYPEQETEPPLGSCSDVMLSVEEEGKEDPLPTAASGK
- percentage of EdU-negative (MCF7; [5]): 24 ± 2.9%
- percentage of EdU-negative (MCF7; [6]): 24 ± 0.5%
- percentage of EdU-negative (hTERT-HMEC; [5]): 5.63 ± 0.33%
- percentage of EdU-negative (hTERT-HMEC; [6]): 5.66 ± 0.2%

Sequence: MRVSGVLRLLALIFAIVTTWMFIRSYMSFSMKTIRLPRWLAASPTKEIQVKKYKCGLIKPCPANYFAFKICSGAANVVGPTMCFEDRMIMSPVKNNVGRGLNIALVNGTTGAVLGQKAFDMYSGDVMHLVKFLKEIPGGALVLVASYDDPGTKMNDESRKLFSDLGSSYAKQLGFRDSWVFIGAKDLRGKSPFEQFLKNSPDTNKYEGWPELLEMEGCMPPKPF [Q96BQ1]
- percentage of EdU-negative (MCF7; [7]): 27.2 ± 0.94%
- percentage of EdU-negative (MCF7; [8]): 26.6 ± 1.5%
- percentage of EdU-negative (hTERT-HMEC; [7]): 5 ± 0.84%
- percentage of EdU-negative (hTERT-HMEC; [8]): 6.345 ± 0.041%

Sequence: MRWCLLLIWAQGLRQAPLASGMMTGTIETTGNISAEKGGSIILQCHLSSTTAQVTQVNWEQQDQLLAICNADLGWHISPSFKDRVAPGPGLGLTLQSLTVNDTGEYFCIYHTYPDGTYTGRIFLEVLESSVAEHGARFQIPLLGAMAATLVVICTAVIVVVALTRKKKALRIHSVEGDLRRKSAGQEEWSPSAPSPPGSCVQAEAAPAGLCGEQRGEDCAELHDYFNVLSYRSLGNCSFFTETG [Q495A1]
- percentage of EdU-negative (MCF7; [9]): 23.6 ± 1.6%
- percentage of EdU-negative (MCF7; protein concentration 0.225 µM): 24.1 ± 1.1%
- percentage of EdU-negative (hTERT-HMEC; [9]): 4.33 ± 0.49%
- percentage of EdU-negative (hTERT-HMEC; protein concentration 0.225 µM): 5.59 ± 0.47%

Sequence: MRWILFIGALIGSSICGQEKFFGDQVLRINVRNGDEISKLSQLVNSNNLKLNFWKSPSSFNRPVDVLVPSVSLQAFKSFLRSQGLEYAVTIEDLQALLDNEDDEMQHNEGQERSSNNFNYGAYHSLEAIYHEMDNIAADFPDLARRVKIGHSFENRPMYVLKFSTGKGVRRPAVWLNAGIHSREWISQATAIWTARKIVSDYQRDPAITSILEKMDIFLLPVANPDGYVYTQTQNRLWRKTRSRNPGSSCIGADPNRNWNASFAGKGASDNPCSEVYHGPHANSEVEVKSVVDFIQKHGNFKGFIDLHSYSQLLMYPYGYSVKKAPDAEELDKVARLAAKALASVSGTEYQVGPTCTTVYPASGSSIDWAYDNGIKFAFTFELRDTGTYGFLLPANQIIPTAEETWLGLKTIMEHVRDNLY [Q9UI42]
- percentage of EdU-negative (MCF7; [9]): 26.3 ± 1.7%
- percentage of EdU-negative (MCF7; protein concentration 0.225 µM): 29.1 ± 1.7%
- percentage of EdU-negative (hTERT-HMEC; [9]): 5.99 ± 0.71%
- percentage of EdU-negative (hTERT-HMEC; protein concentration 0.225 µM): 5.12 ± 0.8%

Sequence: MRWRTILLQYCFLLITCLLTALEAVPIDIDKTKVQNIHPVESAKIEPPDTGLYYDEYLKQVIDVLETDKHFREKLQKADIEEIKSGRLSKELDLVSHHVRTKLDELKRQEVGRLRMLIKAKLDSLQDIGMDHQALLKQFDHLNHLNPDKFESTDLDMLIKAATSDLEHYDKTRHEEFKKYEMMKEHERREYLKTLNEEKRKEEESKFEEMKKKHENHPKVNHPGSKDQLKEVWEETDGLDPNDFDPKTFFKLHDVNSDGFLDEQELEALFTKELEKVYDPKNEEDDMVEMEEERLRMREHVMNEVDTNKDRLVTLEEFLKATEKKEFLEPDSWETLDQQQFFTEEELKEYENIIALQENELKKKADELQKQKEELQRQHDQLEAQKLEYHQVIQQMEQKKLQQGIPPSGPAGELKFEPHI
- percentage of EdU-negative (MCF7; [9]): 24 ± 0.28%
- percentage of EdU-negative (MCF7; protein concentration 0.225 µM): 26 ± 1.5%
- percentage of EdU-negative (hTERT-HMEC; [9]): 5.36 ± 0.7%
- percentage of EdU-negative (hTERT-HMEC; protein concentration 0.225 µM): 5.32 ± 1.9%

Sequence: MSAAWIPALGLGVCLLLLPGPAGSEGAAPIAITCFTRGLDIRKEKADVLCPGGCPLEEFSVYGNIVYASVSSICGAAVHRGVISNSGGPVRVYSLPGRENYSSVDANGIQSQMLSRWSASFTVTKGKSSTQEATGQAVSTAHPPTGKRLKKTPEKKTGNKDCKADIAFLIDGSFNIGQRRFNLQKNFVGKVALMLGIGTEGPHVGLVQASEHPKIEFYLKNFTSAKDVLFAIKEVGFRGGNSNTGKALKHTAQKFFTVDAGVRKGIPKVVVVFIDGWPSDDIEEAGIVAREFGVNVFIVSVAKPIPEELGMVQDVTFVDKAVCRNNGFFSYHMPNWFGTTKYVKPLVQKLCTHEQMMCSKTCYNSVNIAFLIDGSSSVGDSNFRLMLEFVSNIAKTFEISDIGAKIAAVQFTYDQRTEFSFTDYSTKENVLAVIRNIRYMSGGTATGDAISFTVRNVFGPIRESPNKNFLVIVTDGQSYDDVQGPAAAAHDAGITIFSVGVAWAPLDDLKDMASKPKESHAFFTREFTGLEPIVSDVIRGICRDFLESQQ
- percentage of EdU-negative (MCF7; [10]): 23.1 ± 2.5%
- percentage of EdU-negative (MCF7; [11]): 25.4 ± 0.26%
- percentage of EdU-negative (hTERT-HMEC; [10]): 4.89 ± 0.28%
- percentage of EdU-negative (hTERT-HMEC; [11]): 7.63 ± 0.47%
